Reference: PMC11772769 (2024)

B1: MBP-SNX17 (full-length, wild-type) [not stated] / Peptide LRP1_(14mer) [modified: 5-FAM (5-carboxyfluorescein) on the N-terminus; 5-FAM (5-carboxyfluorescein) on the N-terminus] [not stated] (parent complex)
chain 1: MHFSIPETESRSGDSGGSAYVAYNIHVNGVLHCRVRYSQLLGLHEQLRKEYGANVLPAFPPKKLFSLTPAEVEQRREQLEKYMQAVRQDPLLGSSETFNSFLRRAQQETQQVPTEEVSLEVLLSNGQKVLVNVLTSDQTEDVLEAVAAKLDLPDDLIGYFSLFLVREKEDGAFSFVRKLQEFELPYVSVTSLRSQEYKIVLRKSYWDSAYDDDVMENRVGLNLLYAQTVSDIERGWILVTKEQHRQLKSLQEKVSKKEFLRLAQTLRHYGYLRFDACVADFPEKDCPVVVSAGNSELSLQLRLPGQQLREGSFRVTRMRCWRVTSSVPLPSGSTSSPGRGRGEVRLELAFEYLMSKDRLQWVTITSPQAIMMSICLQSMVDELMVKKSGGSIRKMLRRRVGGTLRRSDSQQAVKSPPLLESPDATRESMVKLSSKLSAVSLRGIGSPSTDASASDVHGNFAFEGIGDEDL
chain 2: MNVEIGNPTYKMYE

Variants of: B1
Assay: fluorescence anisotropy; 5-FAM-labeled LRP1 14-mer peptide

Variant | Kd [µM]
chain 1 N459A, chain 1 F462A | 1.5
chain 1 H457A | 3.8
